The values that follow come from patent US20240309087A1.

Assay [1] addresses human CD112R on CHO-CD112R cells (human) (UniProt Q6DKI7). The experiment in a line: FACS binding to CHO-CD112R cells, MFI-APC, fit of the negative control; unit from the axis. (Flow cytometry measures light scatter and fluorescence of single cells or particles in a stream.)
For assay [2] the target is unchanged. The experiment in a line: FACS binding to CHO-CD112R cells, MFI-APC, ambiguous fit of the negative control; unit from the axis.

One may read the EC50 as the concentration giving half of the maximal effect.

Chain of human CD112R on CHO-CD112R cells (human) (Q6DKI7 41-326 limits assumed): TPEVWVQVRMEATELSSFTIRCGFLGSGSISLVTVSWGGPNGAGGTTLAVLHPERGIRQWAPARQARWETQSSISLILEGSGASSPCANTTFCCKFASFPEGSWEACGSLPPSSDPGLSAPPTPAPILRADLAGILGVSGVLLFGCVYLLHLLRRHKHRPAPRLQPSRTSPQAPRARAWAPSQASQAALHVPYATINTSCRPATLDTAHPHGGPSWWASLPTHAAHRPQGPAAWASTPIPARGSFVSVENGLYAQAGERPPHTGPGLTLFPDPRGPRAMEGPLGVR

Take anti-KLH hu-IgG4 antibody: the EC50 in assay [1] stood at 26.3 µg/mL; in assay [2], 4050 µg/mL.
